Earlier results in article PMC8869670.

Molecular target: Thioredoxin (Homo sapiens) (UniProt P10599)
Sequence (P10599 2-105): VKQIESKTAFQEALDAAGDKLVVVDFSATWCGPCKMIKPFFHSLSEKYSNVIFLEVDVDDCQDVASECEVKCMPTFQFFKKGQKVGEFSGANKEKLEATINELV

Kd: 900 nM
Substance: p53 (from UniProt P04637)
